Measurements taken from patent US12516130B2, “Single-domain antibody for targeting prostate specific membrane antigen (PSMA)” (NATIONAL INSTITUTE FOR BIOTECHNOLOGY IN THE NEGEV LTD., priority 2019, dated 2026).
Changes are numbered by the printed parent chain.

B1: NB13: anti-PSMA camel nanobody (VHH, ~16 kDa) selected by phage display (protein)
VHH: QVQLQESGGGSVQTGGSLRLSCAASGYTASFSWIGYFRQAPGKEREGVAVINVGVGSTYYADSVKGRFTISRDNTENTISLEMNSLKPEDTGLYYCAGSLRWSRPPNPISEDAYNYWGQGTQVTVSSAAAYPYDVPDYGS
B2: NB7: anti-PSMA camel nanobody (VHH, ~16 kDa) selected by phage display; PDB 6XXN (protein)
VHH: QVQLQESGGGSVQAGGSLRLSCTAPGYTDSNYYMSWFRQAPGKEREWVAGVNTGRGSTSYADSVKGRFTISQDNAKNTMFLQMNSLKPEDTAIYYCAVAACHFCDSLPKTQDEYILWGQGTQVTVSSAAAYPYDVPDYGS
B3: NB8: anti-PSMA camel nanobody (VHH, ~16 kDa) selected by phage display; PDB 6XXO (protein)
VHH: QVQLQESGGGSVQAGGSLRLSCARSGWPYSTYSMNWFRQAPGKEREAVAGISSTMSGIIFAESKAGQFTISQDNAKNTVYLQMNNLKPEDTAIYYCAARRDYSLSSSSDDFDYWGQGTQVTVSSAAAYPYDVPDYGS
B4: NB37: anti-PSMA camel nanobody (VHH, ~16 kDa) selected by phage display; PDB 6XXP (protein)
VHH: B3 VHH with Q13E
B5: NB7cys: NB7 with an added cysteine in the C-terminus (protein)
VHH (part 1 of 2): B2 VHH
VHH (part 2 of 2): C
modifications: left off: small tags and cut ends
notes: NB7 with an added cysteine in the C-terminus

Target: T1, PSMA (Homo sapiens, UniProt Q04609)
T1 construct: purified extracellular domain of PSMA [residues 44-750; purchased from Caltech Protein Expression Center, CA]; purchased Caltech Protein Expression Center, CA
T1 sequence (Q04609 44-750): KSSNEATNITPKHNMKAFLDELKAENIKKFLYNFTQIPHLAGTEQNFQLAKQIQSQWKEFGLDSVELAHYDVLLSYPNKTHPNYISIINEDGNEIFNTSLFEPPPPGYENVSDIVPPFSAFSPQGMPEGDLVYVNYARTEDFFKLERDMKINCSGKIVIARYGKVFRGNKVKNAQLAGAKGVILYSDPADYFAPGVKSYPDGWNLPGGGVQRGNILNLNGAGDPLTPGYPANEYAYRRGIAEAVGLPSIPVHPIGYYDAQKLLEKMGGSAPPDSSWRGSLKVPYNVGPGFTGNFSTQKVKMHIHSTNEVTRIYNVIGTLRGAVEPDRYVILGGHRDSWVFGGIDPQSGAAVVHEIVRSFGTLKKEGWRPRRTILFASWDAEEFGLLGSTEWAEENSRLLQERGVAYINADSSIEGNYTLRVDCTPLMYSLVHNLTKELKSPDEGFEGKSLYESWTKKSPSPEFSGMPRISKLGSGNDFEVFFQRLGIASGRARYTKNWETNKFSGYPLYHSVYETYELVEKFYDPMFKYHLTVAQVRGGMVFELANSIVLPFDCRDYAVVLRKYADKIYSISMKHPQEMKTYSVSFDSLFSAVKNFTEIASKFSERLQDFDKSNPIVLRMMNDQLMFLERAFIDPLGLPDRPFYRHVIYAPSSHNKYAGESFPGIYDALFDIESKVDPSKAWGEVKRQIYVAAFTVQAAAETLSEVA
Assay: Surface plasmon resonance binding assay
Conditions: SPR, immobilized NB, 1:1 Langmuir model, 25° C., means ± SD
Description: The affinity of each NB to PSMA was determined by using surface plasmon resonance (SPR) spectroscopy on a ProteOn XPR36 chip (Bio-Rad, CA). The chip was activated by using sulfo-NHS (0.1 M N-hydroxysuccinimide) and EDC [0.4 M 1-ethyl-3-(3-dimethylaminopropyl)-carbodiimide]. Each NB (0.2 μg) was immobilized in a 10 mM sodium acetate buffer, pH 5.0, at a flow rate of 30 μl/min. Bovine serum albumin (BSA) (3 μg) was immobilized on the chip as a negative control. Unbound esters were deactivated with 1 M ethanolamine HCl at pH 8.5. The soluble PSMA was then applied over the chip at concentrations of 2.94, 5.88, 11.75, 23.50, or 47.00 nM (for NBs 8, 13, and 37) or of 25, 50, 100, 1,600, or 3,200 pM (for NB7), at a flow rate of 25 μl/min. During this time, the association between the NBs and PSMA was measured. The dissociation was measured while flowing 50 μl/min PBST (namely, a phosphate-buffered saline with 0.005% Tween). For each protein complex, a binding sensogram was generated by subtracting the values of the PSMA response to BSA from those of the PSMA response to the NBs. The dissociation constant (KD) was determined from the Langmuir 1:1 kinetic model. The temperature throughout the binding measurements was set at 25° C.

Molecule | Koff [s⁻¹] | Kon [M⁻¹ s⁻¹]
B1 | 2.2e-05 ± 9.9e-07 | 36000 ± 89
B2 | 3.9e-05 ± 2.8e-07 | 710000 ± 450
B3 | 0.00012 ± 5.3e-07 | 20000 ± 42
B4 | 7.5e-05 ± 6.6e-07 | 22000 ± 53

Same assay, conditions: stated per SEQ ID NO in the description

Molecule | binding constant (Ka) to PSMA
B1 | about 3.6×10^4 M^−1 s^−1
B2 | about 7.1×10^5 M^−1 s^−1
B3 | about 2×10^4 M^−1 s^−1
B4 | about 2.2×10^4 M^−1 s^−1

Target: T1, PSMA
Assay: Small-angle X-ray scattering of PSMA-NB complexes
Conditions: PSMA + NB, method GNOM
Description: The small-angle X-ray scattering (SAXS) of monomeric PSMA was measured in PBS at a final concentration of 0.5-3 mg/ml. For PSMA-NB complex samples, the concentration of PSMA was 0.5 mg/ml and the concentrations of the NBs were 0.1-0.5 mg/ml. Measurements were performed in beamline BM29 at the ESRF. The X-ray wavelength was 1.5 Å and the temperature was 4° C. The detector was Pilatus 1 M and the sample-to-detector distance was set at 2.86 m, with a scattering vector (q) range of 0.0025-0.5 Å^−1. At a scattering angle of 2θ, the magnitude of the scattering vector (q) is defined as: […]
The experimental SAXS data for all samples were linear in the low q, Guinier region. The radii of gyration (Rg) were derived from data in the qRg<1 region by using the Guinier approximation:
The inventors analyzed the small-angle region (0.012<q<0.08 Å^−1) of the scattering profiles using the Guinier approximation embedded in the GNOM method.
The scattering curve reflects structural characteristics in reciprocal space. Scattering profiles were translated into real space by Fourier transformation, resulting in the pairwise-distance distribution function P(r). This function reflects the distances between pairs of scattering points within the macromolecule, allowing the determination of the maximum dimension of the particle (Dmax). To obtain a reliable quantification of Dmax, the inventors incorporated GNOM with in-house scripts. The Rg of monomeric PSMA extracted from SAXS data was compared to the calculated Rg from the crystal structure of monomeric PSMA (PDB 3D7D) using CRYSOL. The overall three-dimensional ab initio models of PSMA and PSMA-NB complexes were restored from the experimental scattering data by using Dammin. Shape reconstruction was performed to represent the molecular shape as a closely packed sphere assembly within a search volume defined by Dmax, chosen with a χ^2<1.3 for all models. For all samples, 20 low-resolution models were averaged using the program DAMAVER to yield an averaged model representing the general structural features of each reconstruction.

Molecule | Dmax [Å] | Rg [Å]
B1 | 120 | 40.5
B2 | 120 | 42.4
B3 | 100 | 39.4
B4 | 110 | 38.6

Same assay, conditions: PSMA + NB, method Guinier

Molecule | Rg [Å]
B1 | 43.8
B2 | 48.2
B3 | 40.5
B4 | 40.4

Same assay, conditions: SAXS, PSMA 0.5 mg/ml

Molecule | shift of Rg of PSMA-NB complex from the original Rg of PSMA (43 Å)
B1 | lower Rg
B2 | higher Rg
B3 | lower Rg
B4 | lower Rg

Same assay, conditions: SAXS; PSMA alone 115 Å

Molecule | change of Dmax on binding of PSMA to NB
B1 | increased Dmax
B2 | increased Dmax
B3 | decreased it
B4 | decreased it

Tested on: PC3-PIP (PSMA+) and PC3-flu (PSMA−) xenografts
Assay: In vivo optical (NIR) imaging of labeled NBs
Design: species or system athymic nude mice
Conditions: ex vivo, after 3 h
Description: Tumor xenografts were generated in 6-week old male athymic nude mice by using PC3-PIP and PC3-flu cells. Each mouse was simultaneously injected subcutaneously with 2×10^6 cells of each line, diluted 1:1 with Matrigel (Corning, USA); PC3-PIP cells were injected above the right upper flank, while PC3-flu cells were injected above the left one. Nine days after the inoculation, as the tumors reached a size of ˜200 mm^3, these mice were injected intravenously with 1.5 nmole of either NB7, NB8, NB13, or NB37 (four mice per group) labeled with NHS-ester AlexaFluor680 (Invitrogen). In addition to these 16 mice, four tumor-bearing mice were not injected with any NB, while four other mice were injected with the labeled NBs (a different NB per mouse) but were not implanted with a xenograft. The mice were anesthetized with isoflurane at different time points (see below) and the distribution of the fluorescently labeled protein was measured in near infra-red (NIR) optical imaging using the IVIS Lumina system (PerkinElmer, USA). Exposure time was set at 1 s. The fluorescence signal was measured at the time of injection, and 0.5, 1, 2, 3, 6, 10, 18, 24, 28, 32, 36, 48 and 56 h after injection. Images of the mice were acquired 3 and 6 h after injection, and again when a signal was no longer detected (24-56 h after injection). At each time point, one mouse from each group of tumor-bearing mice that had been injected with a NB was euthanized for an ex vivo quantification of the fluorescent signal in its organs, using the Living Image software.

Molecule | signal intensity in the PC3-PIP tumor | signal intensity in the PC3-flu tumor | signal intensity in the kidneys
B3 | 171,000 counts/cm^2/s | 21,300 counts/cm^2/s | 94,700 counts/cm^2/s

Same assay, conditions: whole-body NIR imaging, 1.5 nmole AlexaFluor680-labeled NB i.v.

Molecule | duration until the fluorescent signal was no longer detected (late time point) [h]
B1 | 32
B2 | > 56
B3 | 32
B4 | 24

Tested on: PC3-PIP cells
Assay: Time-dependent quantification of NB internalization
Assay type: cell-based
Conditions: 100 nM, imaged every 40 min for 16 h
Description: NB7, NB8, NB13, and NB37, each labeled with Dylight488, were individually incubated for 1 h (at 100 nM) in a 96-well plate. On each well, 1.5×10^4 PC3-PIP cells were seeded and grown overnight, and then the wells were imaged every 40 min for a total of 16 h, using the Operetta CLS high-content analysis system (Perkin Elmer). Each well was imaged as 24 fields, which were later combined to create an image of the entire well. Using the Operetta analysis software, the cells were qualitatively classified into two groups according to the distribution of NBs: (i) mostly on the cell membrane, and (ii) mostly inside the cytoplasm. The number of cells in each group was quantified at each time point and the ratio between the numbers of cells in each group was calculated.

Molecule | internalization into PSMA-expressing cells (cytoplasm/membrane ratio over time)
B1 | much faster
B2 | much faster

Tested on: PC3-PIP cells
Assay: Cell viability assay (propidium iodide, FACS)
Assay type: cell-based
Conditions: 24 h, 1.5 μg/ml DOX or equivalent molar amount
Description: PC3-PIP cells were grown and treated as described in the cell quantification assay section, above. The cells were harvested, incubated with 0.5 μg propidium iodide (PI; Biolegend), and their fluorescence intensity was measured in a BD C6 flow cytometer.

Molecule | PI signal (late apoptosis and necrosis)
B5 | did not change the PI signal
